Source: publication PMC11190491

Target: peptide on cattle MR1 (cattle)
Assay: data from (80); method not given; cattle MR1 without riboflavin-based antigen

Kd: 30 µM
Substance: A-F7 MAIT TCR
